B1: Spectrin alpha chain, erythrocytic 1, residues 979 to 1036; numbered along this chain, P02549 (parent)
chain: EQRVMALYDFQARSPREVTMKKGDVLTLLSSINKDWWKVEAADHQGIVPAVYVRRLAH

Variants of: B1
Assay: abundance fitness (aPCA) (normalised: wild type 0, dead -1); higher = more abundant; growth selection in yeast, the domain comes from the species named
Details: Homo sapiens

Abundance fitness, by site and new letter:
A6: W -0.754; Y -0.794
L7: A -0.609; D -0.135; G -0.559; H -1.18; K -0.176; M -0.049; P -0.76; R -0.686; S -0.85; V -0.199; W -0.716
Y8: A 0.346; F 0.772
D9: A -0.166; E -1.01; G -0.652; L -0.566; M -0.855; N -0.651; R -0.943; S -0.754; T -0.862; V -0.934; W -1.02
F10: A -0.778; C -1.09; D -0.834; G -0.996; I -0.341; L -0.658; P -0.712; Q -0.607; R -0.472; S -0.707; V -0.992; W 0.365; Y 0.625
Q11: A -0.37; C -0.348; D -0.582; E -0.328; G -0.774; H -0.421; I -0.419; K 0.303; M -0.314; P -0.91; S -0.372; T 0.028; V 0.097; W -1.23; Y -0.185
A12: F -0.627; G -0.779; K -0.71; L -0.964; M -0.891; P -0.971; R -0.389; S -0.802; V -0.848; W -0.804
R13: A -0.26; C -0.316; F -0.585; G -0.527; K -0.414; L -0.742; M -0.751; Q -0.305; S -0.221; V -0.867; W -0.738
S14: A -0.743; C -0.571; D 0.134; G -0.358; H -0.292; I -0.276; L -0.866; N 0.014; P -0.802; Q -0.769; R -0.364; T -0.069; V -0.677
P15: A -0.252; C -0.411; D 0.163; E -0.077; G -0.46; K 0.089; L -0.705; R -0.529; S -0.178; T -0.293; V -0.561; Y 0.325
R16: A 0.254; S 0.579
E17: A -0.64; C -0.911; D -0.738; F -0.594; G -0.801; H -0.63; K -0.403; L -0.802; N -0.693; Q -0.239; R -0.778; S -0.92; T -0.729; V -0.9; W -0.8; Y -0.012
V18: A -0.376; C -0.266; E -0.784; F -0.339; G -0.587; K -0.418; L 0.138; M -0.33; P -0.71; Q -0.656; R -0.817; W -1.03
T19: A -0.371; E -0.73; L -0.369; N -0.122; P -0.613; Q -0.476; R -0.744; S 0.249; V -0.822; W -0.932
M20: A -0.791; C -0.726; E -0.726; F -0.681; G -0.829; I -0.554; K -0.574; L -0.276; N -0.209; P -0.831; Q -0.236; R -0.963; T -0.877; V -0.22; W -0.622; Y -0.867
K21: A -0.561; F -0.643; G -0.652; H -0.304; I -0.779; L -0.731; P -0.578; R -0.105; V -0.781; W -0.534
K22: A -0.664; C -0.586; E -0.819; H -0.341; Q 0.303; R -0.238; W -0.725
D24: G -0.883; L -0.986; M -0.527; Q 0.579; R -0.689; S -0.256; T 0.006; V -0.421; Y -0.805
V25: A -0.163; C -0.146; E 0.059; H -0.432; I -0.099; K -0.226; L -1.01; M -0.425; R -0.469; S -0.887; T -0.7
L26: A -0.493; C -0.046; E -0.5; F -0.237; G -0.65; I -0.691; K -0.324; M -0.34; Q -0.429; R -0.819; V -0.767; Y -0.173
T27: A -0.975; C -0.627; I -0.521; K 0.229; L -0.752; N -0.246; P -0.382; Q -0.228; S -0.808; V -0.396
L28: A -0.762; C 0.354; G -0.756; I 0.024; K -0.676; R -0.938; S -0.726; T -0.47; W -0.536
L29: E -0.934; G -0.464; I -0.266; K 0.119; M -0.582; P 0.075; R -0.768; S -0.134; T -0.27; V 0.016; W -0.111
S30: A -0.657; C -0.337; D -0.013; E -0.066; G -0.041; K -0.322; L -1.18; M -0.463; T -0.632; V -0.964; Y -0.108
S31: A 0.092; C -0.157; D 0.673; E 0.518; F -0.47; G -0.34; I 0.495; K -0.179; L -0.38; M -0.04; N -0.224; Q 0.225; R -0.282; V 0.437; W -0.814; Y -0.252
I32: W 1.06
N33: A -0.751; C -0.929; D 0.224; E -0.064; G -0.447; L -0.694; Q -0.494; R -0.739; S -0.35; V -0.833; W -0.822
K34: A -0.292; G -0.415; H 0.231; L 0.207; M -0.514; P -0.015; Q -0.229; R -0.168; T 0.023; V -0.741
D35: A -0.541; E -0.364; K -0.027; L -0.685; M -0.535; N -0.182; P -0.867; Q -0.697; R -0.326; S -0.006; T -0.506; V -0.037
W36: D -0.582; E 0.664; G -0.778; K -0.675; R -0.894; V -0.554
W37: A -0.848; C -0.386; D -0.644; G -0.596; I 0.405; L 0.323; M -0.12; R -0.267; V 0.367
K38: A -0.258; C 0.284; E 0.281; F 0.208; G -0.832; H -0.016; I 0.097; M 0.083; P -0.701; Q 0.041; R -0.033; S -0.301; T 0.373; V 0.303; W -0.168; Y -0.311
V39: E -0.332; F -0.658; G -0.705; K -0.742; P -0.319; R -0.852; S -0.886

— the Human Domainome abundance scans (Beltran et al. 2025)
